Experimental findings from PMC4923861 are described below.

In test [1] the target is CAMSAP3/Marshalin-Ld, V5-His tagged (mouse) (UniProt Q80VC9).
For test [2], the target named is CKK1, CKK domain construct of mouse CAMSAP3/Marshalin-Ld (residues 1020–1253) (mouse).
Test [3] concerns the target CKK domain of mouse CAMSAP3/Marshalin-Ld (CKK1 or CKK2, not told for this experiment) (UniProt Q80VC9). Nature of the test: GST pull-down. To be noted: n = 4; parent: est. 1.0; read off a plot.

“GST-tagged CDH23-C2 (mouse cadherin 23, C isoform, subtype 2) (natural protein)” yielded a decrease of the percent of OK cells with type III (long strings) CAMSAP3/Marshalin-Ld pattern on co-expression of CDH23-C2-GFP, against GFP (54.1% type III), 24 hours after co-transfection in test [1] of 20%.

In test [1], “GST-tagged CDH23-C1 (mouse cadherin 23, C isoform, subtype 1) (natural protein)” returned a decrease of the percent of OK cells with type III (long strings) CAMSAP3/Marshalin-Ld pattern on co-expression of CDH23-C1-GFP, against GFP (54.1% type III), 24 hours after co-transfection of 21.3%. The percent of OK cells with CKK1-induced MT bundles, CKK1 (V5-His) co-expressed with CDH23-C1-GFP, 44 to 68 hours after transfection (19.9% with GFP) in test [2] was found to be 5.5%.

Take “GST-CDH23-C_1–67 (first 67 residues of mouse CDH23-C; CKK binding motif, CBM) R55H”: the response (relative intensity) in test [3] came to 0.65.
